Assay results taken from patent US20110275102.
Several values for one entry are separate records, joined by “and”; a condition that tells them apart may be missing. Equal entries are not always repeated.

Legend:
[1] = tested on: T1, Crosstide GRPRTSSFAEG
T1 sequence: GRPRTSSFAEG

[2] = tested on: T2, RPRAASF
T2 sequence: RPRAASF

[3] = tested on: T3, RPRAATF
T3 sequence: RPRAATF

[4] = tested on: T4, RPRTSSF
T4 sequence: RPRTSSF

[5] = tested on: T5, RPRTSTF
T5 sequence: RPRTSTF

[6] = tested on: T6, GRARTSSFA
T6 sequence: GRARTSSFA

[7] = tested on: T7, GRPRTSSF
T7 sequence: GRPRTSSF

[8] = tested on: T8, KKKNRTLSVA
T8 sequence: KKKNRTLSVA

[9] = tested on: T9, KKRNKTLSVA
T9 sequence: KKRNKTLSVA

[10] = tested on: T10, KKRNRTLSVA
T10 sequence: KKRNRTLSVA

[11] = tested on: T11, KKRNRTLTV
T11 sequence: KKRNRTLTV

[12] = tested on: T12, KPRTSSF
T12 sequence: KPRTSSF

[13] = tested on: T13, RPKTSSF
T13 sequence: RPKTSSF

[14] = tested on: T14, RPRAGSF
T14 sequence: RPRAGSF

[15] = tested on: T15, RPRASSF
T15 sequence: RPRASSF

[16] = tested on: T16, RPRGASF
T16 sequence: RPRGASF

[17] = tested on: T17, RPRGGSF
T17 sequence: RPRGGSF

[18] = tested on: T18, RPRGSSF
T18 sequence: RPRGSSF

[19] = tested on: T19, RPRNSSF
T19 sequence: RPRNSSF

[20] = tested on: T20, RPRTASF
T20 sequence: RPRTASF

[21] = tested on: T21, RPRTGSF
T21 sequence: RPRTGSF

[22] = tested on: T22, RPRTNSF
T22 sequence: RPRTNSF

[23] = tested on: T23, RPRTSSA
T23 sequence: RPRTSSA

[24] = tested on: T24, RPRTSSE
T24 sequence: RPRTSSE

[25] = tested on: T25, RPRTSSFA
T25 sequence: RPRTSSFA

[26] = tested on: T26, RPRTSSK
T26 sequence: RPRTSSK

[27] = tested on: T27, RPRTSSL
T27 sequence: RPRTSSL

[28] = tested on: T28, RPRTSSV
T28 sequence: RPRTSSV

[29] = tested on: T29, RPRTSS
T29 sequence: RPRTSS

[30] = tested on: T30, RPRTVSF
T30 sequence: RPRTVSF

[31] = tested on: T31, RPRVSSF
T31 sequence: RPRVSSF

[32] = tested on: histone H2B
[33] = tested on: myelin basic protein (MBP)

MAPKAP kinase-1 purified from rabbit skeletal muscle
Km [1]: 2 µM | Vmax [1]: 790 U/mg | Km [2]: 20 µM | Vmax [2]: 1020 U/mg | Km [3]: > 500 µM | Km [4]: 12 µM | Vmax [4]: 840 U/mg | Km [5]: > 500 µM | Vmax [5]: > 500 U/mg

HA-RAC-PKα immunoprecipitated from IGF-1 stimulated 293 cells
Km [1]: 4 µM | V (0.1 mM): relative rate of phosphorylation at 0.1 mM peptide (relative to peptide 1) [1]: 100 | Vmax [1]: 250 U/mg | Km [6]: Km of 10 µM and Vmax of 230 U/mg | Vmax [6]: Km of 10 µM and Vmax of 230 U/mg | Km [7]: 8 µM | V (0.1 mM): relative rate of phosphorylation at 0.1 mM peptide (relative to peptide 1) [7]: 129 | Vmax [7]: 385 U/mg | Km [8]: 185 µM | Vmax [8]: 270 U/mg | Km [9]: > 500 µM | Km [10]: 80 µM | Vmax [10]: 300 U/mg | Km [11]: 388 µM | Vmax [11]: 330 U/mg | Km [12]: > 500 µM | V (0.1 mM): relative rate of phosphorylation at 0.1 mM peptide (relative to peptide 1) [12]: 4 | Km [13]: > 500 µM | V (0.1 mM): relative rate of phosphorylation at 0.1 mM peptide (relative to peptide 1) [13]: 2 | Km [2]: 25 µM | V (0.1 mM): relative rate of phosphorylation at 0.1 mM peptide (relative to peptide 1) [2]: 77 | Vmax [2]: 215 U/mg | Km [3]: 25 µM | Vmax [3]: 230 U/mg | Km [14]: 49 µM | V (0.1 mM): relative rate of phosphorylation at 0.1 mM peptide (relative to peptide 1) [14]: 70 | Vmax [14]: 114 U/mg | Km [15]: 12 µM | V (0.1 mM): relative rate of phosphorylation at 0.1 mM peptide (relative to peptide 1) [15]: 89 | Vmax [15]: 230 U/mg | Km [16]: 105 µM | V (0.1 mM): relative rate of phosphorylation at 0.1 mM peptide (relative to peptide 1) [16]: 37 | Vmax [16]: 160 U/mg | Km [17]: 105 µM | V (0.1 mM): relative rate of phosphorylation at 0.1 mM peptide (relative to peptide 1) [17]: 55 | Vmax [17]: 345 U/mg | Km [18]: 60 µM | V (0.1 mM): relative rate of phosphorylation at 0.1 mM peptide (relative to peptide 1) [18]: 37 | Vmax [18]: 163 U/mg | Km [19]: > 500 µM | V (0.1 mM): relative rate of phosphorylation at 0.1 mM peptide (relative to peptide 1) [19]: 21 | Km [20]: 20 µM | V (0.1 mM): relative rate of phosphorylation at 0.1 mM peptide (relative to peptide 1) [20]: 83 | Vmax [20]: 213 U/mg | Km [21]: 25 µM | V (0.1 mM): relative rate of phosphorylation at 0.1 mM peptide (relative to peptide 1) [21]: 77 | Vmax [21]: 233 U/mg | Km [22]: 30 µM | V (0.1 mM): relative rate of phosphorylation at 0.1 mM peptide (relative to peptide 1) [22]: 81 | Vmax [22]: 300 U/mg | Km [23]: 250 µM | V (0.1 mM): relative rate of phosphorylation at 0.1 mM peptide (relative to peptide 1) [23]: 30 | Vmax [23]: 265 U/mg | Km [24]: > 500 µM | V (0.1 mM): relative rate of phosphorylation at 0.1 mM peptide (relative to peptide 1) [24]: 9 | Km [25]: 8 µM | V (0.1 mM): relative rate of phosphorylation at 0.1 mM peptide (relative to peptide 1) [25]: 109 | Vmax [25]: 305 U/mg | Km [4]: 5 µM | V (0.1 mM): relative rate of phosphorylation at 0.1 mM peptide (relative to peptide 1) [4]: 105 | Vmax [4]: 260 U/mg | Km [26]: 80 µM | V (0.1 mM): relative rate of phosphorylation at 0.1 mM peptide (relative to peptide 1) [26]: 67 | Vmax [26]: 308 U/mg | Km [27]: 8 µM | V (0.1 mM): relative rate of phosphorylation at 0.1 mM peptide (relative to peptide 1) [27]: 104 | Vmax [27]: 278 U/mg | Km [28]: 21 µM | V (0.1 mM): relative rate of phosphorylation at 0.1 mM peptide (relative to peptide 1) [28]: 102 | Vmax [28]: 300 U/mg | Km [29]: > 500 µM | V (0.1 mM): relative rate of phosphorylation at 0.1 mM peptide (relative to peptide 1) [29]: 2 | Km [5]: 30 µM | V (0.1 mM): relative rate of phosphorylation at 0.1 mM peptide (relative to peptide 1) [5]: 78 | Vmax [5]: 240 U/mg and 243 U/mg | Km [30]: 30 µM | V (0.1 mM): relative rate of phosphorylation at 0.1 mM peptide (relative to peptide 1) [30]: 89 | Vmax [30]: 365 U/mg | Km [31]: 25 µM | V (0.1 mM): relative rate of phosphorylation at 0.1 mM peptide (relative to peptide 1) [31]: 77 | Vmax [31]: 273 U/mg | Km [32]: histone H2B with a Km of 5 µM and a Vmax of 68 U/mg | Vmax [32]: histone H2B with a Km of 5 µM and a Vmax of 68 U/mg | Km [33]: MBP with a Km of 5 µM and a Vmax of 25 U/mg | Vmax [33]: MBP with a Km of 5 µM and a Vmax of 25 U/mg
